The text below walks through data of PMC3686320 (Biochemistry, 2013).

Substitutions are numbered along the chain they refer to. Where two headings read alike, the source gives them in different places.

Holding throughout (test): AUC
Series [1] concerns the molecule itself.
Series [2] deals with the molecule itself. The source holds these as a separate data set.
Series [3] concerns the molecule itself. The source holds these as a separate data set.

B1: isolated N-terminal core domain of the DnaT protein (domain or fragment, E. coli, UniProt P0A8J2 1-161, looked up)
chain: MSSRVLTPDVVGIDALVHDHQTVLAKAEGGVVAVFANNAPAFYAVTPARLAELLALEEKLARPGSDVALDDQLYQEPQAAPVAVPMGKFAMYPDWQPDADFIRLAALWGVALREPVTTEELASFIAYWQAEGKVFHHVQWQQKLARSLQIGRASNGGLPKR
In the case of B1, in “AUC [1]”, the “stoichiometry N” value was 2.

B2: fluorescein-labeled N-terminal core domain of the DnaT variant S3C (domain or fragment, E. coli, UniProt P0A8J2 1-161, looked up)
chain: B1 chain with S3C
modifications: fluorescein (fluorescein maleimide) on the cysteine that replaces serine 3
Take B2: in “AUC [2]”, the “stoichiometry N” value was 2.

B3: Escherichia coli primosomal DnaT protein, wild type (natural protein, E. coli, UniProt P0A8J2 1-179, looked up)
chain: MSSRVLTPDVVGIDALVHDHQTVLAKAEGGVVAVFANNAPAFYAVTPARLAELLALEEKLARPGSDVALDDQLYQEPQAAPVAVPMGKFAMYPDWQPDADFIRLAALWGVALREPVTTEELASFIAYWQAEGKVFHHVQWQQKLARSLQIGRASNGGLPKRDVNTVSEPDSQIPPGFRG
On to B3, for which the “stoichiometry N” value in “AUC [3]” was found to be 3.

The stoichiometry N is the number of molecules, sites or subunits per partner or assembly.
